Test results published in US20260234255A1 (Genmab, published 2026).
Where a chain is given by its changes, count along the chain named.

Tests used:
human CD30 [1] = target: T1, human CD30 (human, UniProt P28908 19-595); test: flow cytometry, HDLM-2 cells
T1 construct: The same molecule is used for CD30 on HL/ALCL/NHL cell lines; also called huCD30; TNFRSF8
T1 sequence: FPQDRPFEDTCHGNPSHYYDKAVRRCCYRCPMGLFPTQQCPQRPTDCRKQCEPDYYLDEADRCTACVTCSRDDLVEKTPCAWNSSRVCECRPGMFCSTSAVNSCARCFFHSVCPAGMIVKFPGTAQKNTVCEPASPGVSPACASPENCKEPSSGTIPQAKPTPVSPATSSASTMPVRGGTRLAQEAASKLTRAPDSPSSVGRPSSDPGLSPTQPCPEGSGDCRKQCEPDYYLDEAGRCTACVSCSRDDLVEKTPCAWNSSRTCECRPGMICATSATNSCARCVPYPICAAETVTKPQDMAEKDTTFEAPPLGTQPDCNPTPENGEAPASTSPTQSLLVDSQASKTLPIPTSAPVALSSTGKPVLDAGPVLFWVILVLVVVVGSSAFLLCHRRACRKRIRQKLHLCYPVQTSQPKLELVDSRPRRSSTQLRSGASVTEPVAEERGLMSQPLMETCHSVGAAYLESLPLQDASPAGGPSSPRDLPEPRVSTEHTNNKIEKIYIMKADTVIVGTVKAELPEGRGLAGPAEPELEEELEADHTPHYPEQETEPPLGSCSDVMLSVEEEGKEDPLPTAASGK

human CD30 [2] = target: T1, human CD30; test: flow cytometry, KI-JK cells
[3] = target: T2, cynomolgus monkey (Macaca fascicularis) CD30 (cynomolgus monkey, UniProt P28908 19-595 (human entry)); test: flow cytometry, Expi293F cells transfected with cynomolgus monkey CD30 (mfCD30)
T2 construct: also called mfCD30
T2 chain: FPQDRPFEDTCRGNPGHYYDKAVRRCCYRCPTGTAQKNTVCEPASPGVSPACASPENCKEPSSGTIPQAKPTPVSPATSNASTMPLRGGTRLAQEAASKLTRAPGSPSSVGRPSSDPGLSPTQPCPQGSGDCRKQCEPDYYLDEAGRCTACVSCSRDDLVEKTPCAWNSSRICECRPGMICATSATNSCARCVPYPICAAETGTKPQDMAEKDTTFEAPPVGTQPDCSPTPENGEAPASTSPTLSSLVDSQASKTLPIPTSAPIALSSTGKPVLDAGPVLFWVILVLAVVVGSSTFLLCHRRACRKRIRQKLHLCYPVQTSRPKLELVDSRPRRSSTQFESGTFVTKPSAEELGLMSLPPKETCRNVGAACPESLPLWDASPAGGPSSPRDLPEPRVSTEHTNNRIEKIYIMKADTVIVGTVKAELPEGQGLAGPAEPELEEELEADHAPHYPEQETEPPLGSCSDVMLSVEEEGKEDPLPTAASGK
Protocol: (§1) Cells (3×10⁴ cells/well) were incubated in polystyrene 96-well round-bottom plates (Greiner bio-one, cat. no. 650180) with serial dilutions of antibodies (ranging from 0.005 to 10 μg/mL in 3-fold dilution steps) in 100 μL staining buffer at 4° C. for 30 min. Experiments were performed in technical duplicate. After washing twice in staining buffer, cells were incubated in 50 μL secondary antibody at 4° C. for 30 min. As a secondary antibody, R-PE-conjugated goat-anti-human IgG (Jackson ImmunoResearch, UK; cat. no. 109⁻¹¹⁶-098) diluted 1:400 in staining buffer was used. Cells were washed twice in staining buffer, resuspended in 30 μL staining buffer containing 0.4% EDTA and analyzed on an iQue Screener (Intellicyt Corporation, USA). Binding curves were analyzed using non-linear regression (sigmoidal dose-response with variable slope) using GraphPad Prism V9.0.0 software (GraphPad Software, San Diego, CA, USA).

human CD30 [4] = target: T1, human CD30; test: flow cytometry, DEL cells
human CD30 [5] = target: T1, human CD30; test: flow cytometry, HDLM-2 cells
Protocol: (§2) Binding of CD3×CD30 bispecific antibodies to two CD30-expressing human tumor cell lines SU-DHL-1 (ALCL; ATCC, cat. no. ACC 356) and HDLM-2 (HL; ATCC, cat. no. CRL-2965) was analyzed […] by flow cytometry.
(§3) Cells (3×10⁴ cells/well) were incubated in polystyrene 96-well round-bottom plates (Greiner bio-one, cat. no. 650180) with serial dilutions of antibodies (range 0.0046 to 10 μg/mL in 3-fold dilution steps) in 50 μL staining buffer at 4° C. for 30 min. After washing twice in staining buffer, cells were incubated with 50 μL secondary antibody at 4° C. for 30 min. […] Next, cells were washed twice in staining buffer, resuspended in 100 μL staining buffer supplemented with TO-PRO-3 iodide (Thermo Fisher Scientific; cat. no. T3605; 1:8000 dilution) and analyzed on a FACSCelesta flow cytometer (BD Biosciences, USA). Live cells were gated based on FSC/SSC and absence of TOPRO-3 staining. Binding curves were analyzed by non-linear regression of log-transformed data (sigmoidal dose-response with variable slope, four parameters) using GraphPad Prism V7.02 software (GraphPad Software, San Diego, CA, USA).

human CD30 [6] = target: T1, human CD30; test: flow cytometry, SU-DHL-1 cells
Protocol: as §2, §3

cynomolgus monkey CD3 = target: T3, cynomolgus monkey CD3 (cynomolgus monkey, UniProt Q95LI5 22-198); test: flow cytometry, cynomolgus monkey T cells (PBMCs)
T3 construct: CD3 endogenously expressed on T cells within cynomolgus monkey PBMCs
T3 sequence (Q95LI5 22-198): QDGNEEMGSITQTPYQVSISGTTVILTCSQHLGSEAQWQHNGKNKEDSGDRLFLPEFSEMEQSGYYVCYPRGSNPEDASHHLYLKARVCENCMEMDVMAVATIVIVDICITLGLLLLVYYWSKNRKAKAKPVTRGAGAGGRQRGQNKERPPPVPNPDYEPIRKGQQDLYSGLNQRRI
Protocol: Cynomolgus monkey PBMCs (Tebu-Bio, The Netherlands; cat. no. PBMCMFA-10) or purified human T cells were plated in polystyrene 96-well round-bottom plates. T cells were derived from human donor buffy coats (Sanquin, Amsterdam, The Netherlands) and isolated using the RosetteSep human T cell enrichment cocktail (Stemcell Technologies, France, cat. no. 15061) according to manufacturer's instructions. […] After washing twice in staining buffer, cells were incubated in 50 μL secondary R-PE-conjugated goat-anti-human IgG antibody at 4° C. for 30 min (1:400 dilution). After washing twice in staining buffer, T cells were stained for T-cell markers CD3 (1:100; Miltenyi biotec, clone 10D12, conjugated to APC), CD4 (1:50; eBioscience, clone OKT4, conjugated to APC-Cy7), CD8 (1:100; Biolegend, clone RPA-T8, conjugated to AF700) and T-cell activation markers CD69 (1:50; BD Biosciences, clone AB2439, conjugated to FITC), CD25 (1:50; eBioscience, clone BC96, conjugated to PE-Cy7) and CD279/PD1 (1:50; BD Biosciences, clone AEH12.2H7, conjugated to BV605). Single stained samples with Ultracomp beads (5 μL; Invitrogen, cat. no. 01-2222-42) were used for compensation adjustments of the flow cytometer. After 30 min of incubation at 4° C., cells were washed twice with staining buffer, resuspended in 100 μL staining buffer and analyzed using a FACS Fortessa (BD Biosciences). Data were processed using FlowJo (BD Biosciences).

[7] = target: T4, rhesus monkey (Macaca mulatta) CD30 (rhesus monkey, UniProt P28908 19-595 (human entry)); test: flow cytometry, Expi293F cells transfected with rhesus monkey CD30
T4 construct: also called mmCD30
T4 chain: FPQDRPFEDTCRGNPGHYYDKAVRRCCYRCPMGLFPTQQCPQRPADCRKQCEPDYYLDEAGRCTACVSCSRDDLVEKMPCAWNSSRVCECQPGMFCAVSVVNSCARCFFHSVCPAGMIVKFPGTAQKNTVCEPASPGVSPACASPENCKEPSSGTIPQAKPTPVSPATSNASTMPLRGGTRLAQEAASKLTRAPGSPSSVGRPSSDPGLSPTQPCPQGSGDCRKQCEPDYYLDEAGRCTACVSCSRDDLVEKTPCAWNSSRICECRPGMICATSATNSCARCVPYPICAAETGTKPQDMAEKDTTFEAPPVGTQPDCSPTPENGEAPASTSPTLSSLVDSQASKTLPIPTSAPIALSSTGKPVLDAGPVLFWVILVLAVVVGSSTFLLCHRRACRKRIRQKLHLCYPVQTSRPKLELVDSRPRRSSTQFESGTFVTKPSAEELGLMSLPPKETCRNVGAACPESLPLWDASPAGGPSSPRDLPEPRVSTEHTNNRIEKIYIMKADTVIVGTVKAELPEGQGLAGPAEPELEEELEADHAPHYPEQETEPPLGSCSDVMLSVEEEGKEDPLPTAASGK
Protocol: as §1

human CD30 [8] = target: T1, human CD30; test: cell-based or functional assay

B1: bsG1-b12-FEALxCD30-MDX060-FEAR (bispecific antibody, human IgG1, kappa)
heavy 1: QVQLVQSGAEVKKPGASVKVSCQASGYRFSNFVIHWVRQAPGQRFEWMGWINPYNGNKEFSAKFQDRVTFTADTSANTAYMELRSLRSADTAVYYCARVGPYSWDDSPQDNYYMDVWGKGTTVIVSSASTKGPSVFPLAPSSKSTSGGTAALGCLVKDYFPEPVTVSWNSGALTSGVHTFPAVLQSSGLYSLSSVVTVPSSSLGTQTYICNVNHKPSNTKVDKRVEPKSCDKTHTCPPCPAPEFEGGPSVFLFPPKPKDTLMISRTPEVTCVVVAVSHEDPEVKFNWYVDGVEVHNAKTKPREEQYNSTYRVVSVLTVLHQDWLNGKEYKCKVSNKALPAPIEKTISKAKGQPREPQVYTLPPSREEMTKNQVSLTCLVKGFYPSDIAVEWESNGQPENNYKTTPPVLDSDGSFLLYSKLTVDKSRWQQGNVFSCSVMHEALHNHYTQKSLSLSPG
light 1: EIVLTQSPGTLSLSPGERATFSCRSSHSIRSRRVAWYQHKPGQAPRLVIHGVSNRASGISDRFSGSGSGTDFTLTITRVEPEDFALYYCQVYGASSYTFGQGTKLERKRTVAAPSVFIFPPSDEQLKSGTASVVCLLNNFYPREAKVQWKVDNALQSGNSQESVTEQDSKDSTYSLSSTLTLSKADYEKHKVYACEVTHQGLSSPVTKSFNRGEC
heavy 2: QVQLQQWGAGLLKPSETLSLTCAVYGGSFSAYYWSWIRQPPGKGLEWIGDINHGGGTNYNPSLKSRVTISVDTSKNQFSLKLNSVTAADTAVYYCASLTAYWGQGSLVTVSSASTKGPSVFPLAPSSKSTSGGTAALGCLVKDYFPEPVTVSWNSGALTSGVHTFPAVLQSSGLYSLSSVVTVPSSSLGTQTYICNVNHKPSNTKVDKRVEPKSCDKTHTCPPCPAPEFEGGPSVFLFPPKPKDTLMISRTPEVTCVVVAVSHEDPEVKFNWYVDGVEVHNAKTKPREEQYNSTYRVVSVLTVLHQDWLNGKEYKCKVSNKALPAPIEKTISKAKGQPREPQVYTLPPSREEMTKNQVSLTCLVKGFYPSDIAVEWESNGQPENNYKTTPPVLDSDGSFFLYSRLTVDKSRWQQGNVFSCSVMHEALHNHYTQKSLSLSPG
light 2: DIQMTQSPTSLSASVGDRVTITCRASQGISSWLTWYQQKPEKAPKSLIYAASSLQSGVPSRFSGSGSGTDFTLTISSLQPEDFATYYCQQYDSYPITFGQGTRLEIKRTVAAPSVFIFPPSDEQLKSGTASVVCLLNNFYPREAKVQWKVDNALQSGNSQESVTEQDSKDSTYSLSSTLTLSKADYEKHKVYACEVTHQGLSSPVTKSFNRGEC
notes: Monovalent CD30 control
EC50 (read off the curve) (human CD30 [1]): ~0.1 µg/mL
EC50 (read off the curve) (human CD30 [2]): ~0.2 µg/mL
binding result [3]: binds
EC50 (read off the curve) (human CD30 [4]): ~0.2 µg/mL
EC50 (read off the curve) (human CD30 [5]): ~0.3 µg/mL
EC50 (read off the curve) (human CD30 [6]): ~0.4 µg/mL

B2: bsG1-huCD3-FEALxb12-FEAR (bispecific antibody)
heavy 1: not shown
light 1: not shown
heavy 2: B1 heavy 1 with L415F, K419R
light 2: B1 light 1
notes: Monovalent CD3 control; The b12 arm is HIV-1 gp120 specific
EC50 (read off the curve) (cynomolgus monkey CD3): ~0.5 µg/mL

B3: bsG1-huCD3-FEALxCD30-HRS-3-FEAR (bispecific antibody, human IgG1, kappa, lambda)
heavy 1: not shown
light 1: not shown
heavy 2: QVQLQQSGAELARPGASVKMSCKASGYTFTTYTIHWVRQRPGHDLEWIGYINPSSGYSDYNQNFKGKTTLTADKSSNTAYMQLNSLTSEDSAVYYCARRADYGNYEYTWFAYWGQGTTVTVSSASTKGPSVFPLAPSSKSTSGGTAALGCLVKDYFPEPVTVSWNSGALTSGVHTFPAVLQSSGLYSLSSVVTVPSSSLGTQTYICNVNHKPSNTKVDKRVEPKSCDKTHTCPPCPAPEFEGGPSVFLFPPKPKDTLMISRTPEVTCVVVAVSHEDPEVKFNWYVDGVEVHNAKTKPREEQYNSTYRVVSVLTVLHQDWLNGKEYKCKVSNKALPAPIEKTISKAKGQPREPQVYTLPPSREEMTKNQVSLTCLVKGFYPSDIAVEWESNGQPENNYKTTPPVLDSDGSFFLYSRLTVDKSRWQQGNVFSCSVMHEALHNHYTQKSLSLSPG
light 2: DIVMTQSPKFMSTSVGDRVTVTCKASQNVGTNVAWFQQKPGQSPKVLIYSASYRYSGVPDRFTGSGSGTDFTLTISNVQSEDLAEYFCQQYHTYPLTFGGGTKLEINRTVAAPSVFIFPPSDEQLKSGTASVVCLLNNFYPREAKVQWKVDNALQSGNSQESVTEQDSKDSTYSLSSTLTLSKADYEKHKVYACEVTHQGLSSPVTKSFNRGEC
notes: Bispecific IgG1 made by controlled Fab-arm exchange
EC50 (read off the curve) [7]: ~0.3 µg/mL
T-cell mediated cytotoxicity of Karpas-299 cells, IC50 average (human CD30 [8]): 0.068 µg/mL
T-cell mediated cytotoxicity of Karpas-299 cells, maximum lysis average (human CD30 [8]): 47.5%
EC50 (read off the curve) (human CD30 [5]): ~0.1 µg/mL
EC50 (read off the curve) (human CD30 [6]): ~0.2 µg/mL

B4: bsG1-huCD3-FEALxCD30-T105-FEAR (bispecific antibody, human IgG1, kappa, lambda)
heavy 1: not shown
light 1: not shown
heavy 2: not shown
light 2: B3 light 2 with P8Q, T20S, G30N, F36Y, K45E, V46A, H92N, T93S, G100S, N107K
notes: Bispecific IgG1 made by controlled Fab-arm exchange; also called bsIgG1-huCD3-FEALxCD30-T105-FEAR
EC50 (read off the curve) [7]: ~0.3 µg/mL
T-cell mediated cytotoxicity of Karpas-299 cells, IC50 average (human CD30 [8]): 0.042 µg/mL
T-cell mediated cytotoxicity of Karpas-299 cells, maximum lysis average (human CD30 [8]): 52.6%
EC50 (read off the curve) (human CD30 [5]): ~0.4 µg/mL
EC50 (read off the curve) (human CD30 [6]): ~0.3 µg/mL
